Here are results for two molecules from article PMC9365787, “Molecular basis of MHC I quality control in the peptide loading complex” (Nature Communications, 2022).

The labels stand for the following.
B1: tapasin (natural protein, human (endogenous in Raji), UniProt O15533 21-448, looked up)
chain: GPAVIECWFVEDASGKGLAKRPGALLLRQGPGEPPPRPDLDPELYLSVHDPAGALQAAFRRYPRGAPAPHCEMSRFVPLPASAKWASGLTPAQNCPRALDGAWLMVSISSPVLSLSSLLRPQPEPQQEPVLITMATVVLTVLTHTPAPRVRLGQDALLDLSFAYMPPTSEAASSLAPGPPPFGLEWRRQHLGKGHLLLAATPGLNGQMPAAQEGAVAFAAWDDDEPWGPWTGNGTFWLPTVQPFQEGTYLATIHLPYLQGQVTLELAVYKPPKVSLMPATLARAAPGEAPPELLCLVSHFYPSGGLEVEWELRGGPGGRSQKAEGQRWLSALRHHSDGSVSLSGHLQPPPVTTEQHGARYACRIHHPSLPASGRSAEVTLEVAGLSGPSLEDSVGLFLSAFLLLGLFKALGWAAVYLSTCKDSKKKAE
modifications: N-glycan at Asn233 (Man9-0GlcNAc2-1, heterogeneous); disulfide from Cys95 to Cys33 of ERp57
notes: source: endogenous, Raji (Burkitt's lymphoma) cells, solubilised in GDN; purified within the PLC by ICP47^SBP and reconstituted in MSP2N2 nanodiscs
B2: calreticulin (natural protein, human (endogenous in Raji), UniProt P27797 18-417, looked up)
chain: EPAVYFKEQFLDGDGWTSRWIESKHKSDFGKFVLSSGKFYGDEEKDKGLQTSQDARFYALSASFEPFSNKGQTLVVQFTVKHEQNIDCGGGYVKLFPNSLDQTDMHGDSEYNIMFGPDICGPGTKKVHVIFNYKGKNVLINKDIRCKDDEFTHLYTLIVRPDNTYEVKIDNSQVESGSLEDDWDFLPPKKIKDPDASKPEDWDERAKIDDPTDSKPEDWDKPEHIPDPDAKKPEDWDEEMDGEWEPPVIQNPEYKGEWKPRQIDNPDYKGTWIHPEIDNPEYSPDPSIYAYDNFGVLGLDLWQVKSGTIFDNFLITNDEAYAEEFGNETWGVTKAAEKQMKDKQDEEQRLKEEEEDKKRKEEEEAEDKEDDEDKDEDEEDEEDKEEDEEEDVPGQAKDEL
notes: as for B1

One assay concerns the target T1, ERp57 (human (endogenous in Raji), UniProt P30101 25-505, disulfide from Cys33 to Cys95 of tapasin).
T1 construct: also called disulfide isomerase ERp57; source: endogenous, Raji (Burkitt's lymphoma) cells, solubilised in GDN; purified within the PLC by ICP47^SBP and reconstituted in MSP2N2 nanodiscs
T1 sequence (looked up): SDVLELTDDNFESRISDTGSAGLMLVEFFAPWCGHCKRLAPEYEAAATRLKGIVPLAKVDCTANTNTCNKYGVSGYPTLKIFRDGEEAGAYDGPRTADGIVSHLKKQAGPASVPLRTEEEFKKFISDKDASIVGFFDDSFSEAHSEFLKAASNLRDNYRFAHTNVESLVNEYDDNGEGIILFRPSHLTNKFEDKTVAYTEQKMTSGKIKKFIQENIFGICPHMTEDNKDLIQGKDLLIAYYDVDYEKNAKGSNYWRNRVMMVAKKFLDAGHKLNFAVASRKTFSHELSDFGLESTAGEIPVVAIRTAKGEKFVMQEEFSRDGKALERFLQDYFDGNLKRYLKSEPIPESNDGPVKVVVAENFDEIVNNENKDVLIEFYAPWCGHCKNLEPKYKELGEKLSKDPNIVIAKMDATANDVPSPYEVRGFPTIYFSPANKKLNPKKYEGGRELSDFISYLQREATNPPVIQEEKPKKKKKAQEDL
Briefly: cryo-EM structure; PLC::MSP2N2 (1.8 mg/ml, 2.5 µM) in lipid nanodiscs without chemical fixation; focused refinement on the fully assembled editing module, 3.7 Å. Conditions: both partners purified.

The target in the assay “tapasin” is B1. The assay is described as above. Conditions: both partners purified.

As to B1, the binding result in the assay with ERp57 is recorded as “binds”.
As to B2, the binding result with tapasin is “binds”.
